{
  "source": "patent US7662384B2",
  "about": "“Use of anti-α5β1 antibodies to inhibit cancer cell proliferation” (Facet Biotech Corporation, priority 2004, dated 2010)",
  "molecules": {"B1": {"name": "IIA1: parent mouse IgG1 class anti-α5β1 antibody shown to inhibit α5β1 integrin binding to fibronectin (antibody, V domains shown)", "VH": "MAVLGLLLCLVTFPSCVLSQVQLKESGPGLVAPSQSLSITCTISGFSLTDYGVHWVRQPPGKGLEWLVVIWSDGSSTYNSALKSRMTIRKDNSKSQVFLIMNSLQTDDSAMYYCARHGTYYGMTTTGDALDYWGQGTSVTVSS", "VL": "MDFQVQIFSFLLISASVIMSRGQIVLTQSPAIMSASLGERVTMTCTASSSVSSNYLHWYQQKPGSAPNLWIYSTSNLASGVPARFSGSGSGTSYSLTISSMEAEDAATYYCHQYLRSPPTFGGGTKLEIK", "modifications": "mus muscalus"}, "B2": {"name": "M200: chimeric IgG4 anti-α5β1 antibody derived from IIA1; generic name volociximab (antibody, V domains shown)", "VH": "B1 VH", "VL": "MDFQVQIFSFLLISASVIMSRGQIVLTQSPAIMSASLGERVTMTCTASSSVSSNYLHWYQQKPGSAPNLWIYSTSNLASGVPARFSGSGSGTSYSLTISSMEAEDAATYYCHQYLRSPPTFGGGTKLEIKDMSVDMSV", "modifications": "chimeric antibody", "notes": "chimeric IgG4 anti-α5β1 antibody derived from IIA1; generic name volociximab"}},
  "key": {"[1]": {"target": "α5β1 integrin binding to fibronectin (Homo sapiens, UniProt P05556+P08648)", "sequence (P08648 42-894 limits assumed)": "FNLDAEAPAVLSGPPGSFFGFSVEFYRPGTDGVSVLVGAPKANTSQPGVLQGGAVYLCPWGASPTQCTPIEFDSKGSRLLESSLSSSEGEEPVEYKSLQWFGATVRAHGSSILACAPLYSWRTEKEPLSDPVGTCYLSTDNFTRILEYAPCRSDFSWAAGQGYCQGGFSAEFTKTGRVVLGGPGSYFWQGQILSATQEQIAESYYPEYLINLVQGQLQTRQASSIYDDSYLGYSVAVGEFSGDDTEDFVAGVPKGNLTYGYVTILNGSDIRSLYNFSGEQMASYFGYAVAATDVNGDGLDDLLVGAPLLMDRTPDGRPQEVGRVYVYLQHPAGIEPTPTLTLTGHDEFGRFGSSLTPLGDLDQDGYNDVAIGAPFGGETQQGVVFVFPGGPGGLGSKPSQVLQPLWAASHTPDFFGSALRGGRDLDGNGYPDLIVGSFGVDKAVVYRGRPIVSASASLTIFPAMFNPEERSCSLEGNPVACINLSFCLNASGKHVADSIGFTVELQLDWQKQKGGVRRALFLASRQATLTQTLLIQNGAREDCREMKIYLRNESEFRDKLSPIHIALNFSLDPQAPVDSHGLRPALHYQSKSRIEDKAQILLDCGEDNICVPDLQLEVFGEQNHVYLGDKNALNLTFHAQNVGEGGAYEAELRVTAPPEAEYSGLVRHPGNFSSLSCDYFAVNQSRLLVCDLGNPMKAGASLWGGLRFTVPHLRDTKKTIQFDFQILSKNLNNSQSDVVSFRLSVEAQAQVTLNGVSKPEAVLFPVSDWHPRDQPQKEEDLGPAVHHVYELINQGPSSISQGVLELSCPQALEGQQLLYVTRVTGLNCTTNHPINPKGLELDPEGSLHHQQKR", "sequence (P08648 895-1049 limits assumed)": "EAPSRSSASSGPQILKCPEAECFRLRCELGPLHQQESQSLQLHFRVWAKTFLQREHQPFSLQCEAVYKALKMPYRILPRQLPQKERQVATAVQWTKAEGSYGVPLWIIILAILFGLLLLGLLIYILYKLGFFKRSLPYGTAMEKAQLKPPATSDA", "sequence (P05556 21-798)": "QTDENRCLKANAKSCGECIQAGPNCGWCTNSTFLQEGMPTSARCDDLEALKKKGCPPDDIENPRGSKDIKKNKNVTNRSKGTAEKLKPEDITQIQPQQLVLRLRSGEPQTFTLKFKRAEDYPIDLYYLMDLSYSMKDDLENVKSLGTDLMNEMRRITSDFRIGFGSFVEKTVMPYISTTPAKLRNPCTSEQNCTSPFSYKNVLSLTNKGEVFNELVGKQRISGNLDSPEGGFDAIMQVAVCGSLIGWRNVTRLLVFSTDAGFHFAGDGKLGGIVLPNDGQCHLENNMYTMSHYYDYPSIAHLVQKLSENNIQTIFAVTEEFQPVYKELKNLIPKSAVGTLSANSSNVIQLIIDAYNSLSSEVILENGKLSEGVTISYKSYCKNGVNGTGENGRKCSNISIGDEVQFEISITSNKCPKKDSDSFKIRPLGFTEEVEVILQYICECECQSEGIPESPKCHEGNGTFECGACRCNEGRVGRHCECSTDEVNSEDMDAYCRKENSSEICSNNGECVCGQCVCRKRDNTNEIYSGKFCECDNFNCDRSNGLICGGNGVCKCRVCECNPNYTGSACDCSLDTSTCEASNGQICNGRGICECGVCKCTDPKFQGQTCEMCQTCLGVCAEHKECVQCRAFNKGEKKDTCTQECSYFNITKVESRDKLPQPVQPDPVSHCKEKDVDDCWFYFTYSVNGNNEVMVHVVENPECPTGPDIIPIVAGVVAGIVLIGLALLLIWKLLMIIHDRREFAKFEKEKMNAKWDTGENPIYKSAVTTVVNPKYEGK", "conditions": "cited from earlier work"}, "VX2 tumors": {"test_system": "VX2 tumors", "conditions": "rabbit, in vivo, 10 mg/kg", "experimental": "Rabbits were inoculated on Day 0 with a cell suspension (100 μl) subcutaneously (left hind limb), and intramuscularly at a depth of about 3 mm (right hind limb). Intramuscular inoculation was carried out as follows. With the rabbit under ketamine/isoflurane anesthesia, a ˜2 cm incision was made parallel to the right femur with a scalpel on the anterior, lateral aspect of the femoral axis, ˜⅓ of the total femur length distally from the femoral-pelvic (hip) joint. Muscle groups were separated to create a ˜0.5 cm deep cavity. One VX2 tumor fragment from a donor animal was placed into the cavity. Skin was securely closed with sterile surgical staples or sutures and a topical antibiotic was applied to the wound site.\nM200 was administered intravenously at 10 mg/kg dosage to a tumor-bearing rabbit and the tumor was excised 1 hour later. Tumor sections were stained with either: (i) an anti-human secondary antibody specific for tumor bound M200; (ii) IIA1 followed by an anti-mouse secondary to detect total α5β1; or (iii) a control IgG and anti-mouse secondary."}, "CHL-1": {"test_system": "CHL-1", "test": "M200 in vitro cell proliferation assay", "assay_type": "cell-based", "conditions": "CHL-1 (melanoma), 4-day assay", "procedure": "(§1) Cancer cell lines were plated at a density of 2500 cells/well in 96-well plates in IMDM with supplements in the presence or absence of 10% FBS. At the time of plating, cells were challenged with various concentrations M200 or a non-function blocking anti-α5 antibody, VC5. Four days later, cell viability was assessed by the CellTiter 96 AQueous Non-Radioactive Cell Proliferation Assay (Promega) according to the manufacturer's instructions. All growth studies were done at least 3 times in triplicate."}, "A549": {"test_system": "A549", "test": "M200 in vitro cell proliferation assay", "assay_type": "cell-based", "conditions": "A549 (lung), 4-day assay", "procedure": "as §1"}, "A2058": {"test_system": "A2058", "test": "M200 in vitro cell proliferation assay", "assay_type": "cell-based", "conditions": "A2058 (melanoma), 4-day assay", "procedure": "as §1"}, "HT1080": {"test_system": "HT1080", "test": "M200 in vitro cell proliferation assay", "assay_type": "cell-based", "conditions": "HT1080 (fibrosarcoma), 4-day assay", "procedure": "as §1"}, "A375": {"test_system": "A375", "test": "M200 in vitro cell proliferation assay", "assay_type": "cell-based", "conditions": "A375 (melanoma), 4-day assay", "procedure": "as §1"}, "COLO 357": {"test_system": "COLO 357", "test": "M200 in vitro cell proliferation assay", "assay_type": "cell-based", "conditions": "COLO 357 (pancreas), 4-day assay", "procedure": "as §1"}, "H460": {"test_system": "H460", "test": "M200 in vitro cell proliferation assay", "assay_type": "cell-based", "conditions": "H460 (lung), 4-day assay", "procedure": "as §1"}, "MIA PACA-2": {"test_system": "MIA PACA-2", "test": "M200 in vitro cell proliferation assay", "assay_type": "cell-based", "conditions": "MIA PACA-2 (pancreas), 4-day assay", "procedure": "as §1"}, "TK-10": {"test_system": "TK-10", "test": "M200 in vitro cell proliferation assay", "assay_type": "cell-based", "conditions": "TK-10 (renal), 4-day assay", "procedure": "as §1"}, "UACC-62": {"test_system": "UACC-62", "test": "M200 in vitro cell proliferation assay", "assay_type": "cell-based", "conditions": "UACC-62 (melanoma), 4-day assay", "procedure": "as §1"}, "SN12C": {"test_system": "SN12C", "test": "M200 in vitro cell proliferation assay", "assay_type": "cell-based", "conditions": "SN12C (renal), 4-day assay", "procedure": "as §1"}, "C32": {"test_system": "C32", "test": "M200 in vitro cell proliferation assay", "assay_type": "cell-based", "conditions": "C32 (melanoma), 4-day assay", "procedure": "as §1"}, "EKVX": {"test_system": "EKVX", "test": "M200 in vitro cell proliferation assay", "assay_type": "cell-based", "conditions": "EKVX (lung), 4-day assay", "procedure": "as §1"}, "HCT-116": {"test_system": "HCT-116", "test": "M200 in vitro cell proliferation assay", "assay_type": "cell-based", "conditions": "HCT-116 (colon), 4-day assay", "procedure": "as §1"}, "CAPAN-1": {"test_system": "CAPAN-1", "test": "M200 in vitro cell proliferation assay", "assay_type": "cell-based", "conditions": "CAPAN-1 (pancreas), 4-day assay", "procedure": "as §1"}, "A498": {"test_system": "A498", "test": "M200 in vitro cell proliferation assay", "assay_type": "cell-based", "conditions": "A498 (renal), 4-day assay", "procedure": "as §1"}, "C8161": {"test_system": "C8161", "test": "M200 in vitro cell proliferation assay", "assay_type": "cell-based", "conditions": "C8161 (melanoma), 4-day assay", "procedure": "as §1"}, "DU145": {"test_system": "DU145", "test": "M200 in vitro cell proliferation assay", "assay_type": "cell-based", "conditions": "DU145 (prostate), 4-day assay", "procedure": "as §1"}, "HT144": {"test_system": "HT144", "test": "M200 in vitro cell proliferation assay", "assay_type": "cell-based", "conditions": "HT144 (melanoma), 4-day assay", "procedure": "as §1"}, "ES-2": {"test_system": "ES-2", "test": "M200 in vitro cell proliferation assay", "assay_type": "cell-based", "conditions": "ES-2 (ovarian), 4-day assay", "procedure": "as §1"}, "[2]": {"test": "Phase I dose-escalation study: pharmacokinetics (serum ELISA)", "experimental": "The serum for measuring M200 concentrations was obtained immediately before and after the first dose, and at 4, 24, 48, and 168 hours after completion of the first dose. Serum samples for measuring M200 concentrations were also taken immediately before, at the end, and 4 hours after the completion of each subsequent infusion. These samples were split and aliquots assayed before the next dose and again at the end of the study: end of 1st dose, 168 hours after 1st dose, immediately pre-dose (trough) and immediately post-dose (peak) for the 2nd, 3rd, 4th and 5th doses. The serum levels of M200 were measured by ELISA.\nThe plasma concentration-time data of M200 from each patient was subjected to a PK analysis. The following parameters were included in the calculations: peak (Cmax) and trough (Cmin) levels, terminal phase half-life (T1/2 β), area under the plasma-concentration time curve (AUC), elimination clearance (CL), and volume of distribution (V). Summary parameters were computed across patients from each treatment group. Changes in the PK parameters as a function of dose and time were also evaluated."}, "[3]": {"test": "pharmacokinetic studies in cynomolgus monkeys", "assay_type": "in vivo"}, "[4]": {"target": "α5β1 integrin found in rabbit (Oryctolagus cuniculus, UniProt A0A5F9C3C4+A0A5F9CXX2)", "sequence (A0A5F9CXX2 1-1041)": "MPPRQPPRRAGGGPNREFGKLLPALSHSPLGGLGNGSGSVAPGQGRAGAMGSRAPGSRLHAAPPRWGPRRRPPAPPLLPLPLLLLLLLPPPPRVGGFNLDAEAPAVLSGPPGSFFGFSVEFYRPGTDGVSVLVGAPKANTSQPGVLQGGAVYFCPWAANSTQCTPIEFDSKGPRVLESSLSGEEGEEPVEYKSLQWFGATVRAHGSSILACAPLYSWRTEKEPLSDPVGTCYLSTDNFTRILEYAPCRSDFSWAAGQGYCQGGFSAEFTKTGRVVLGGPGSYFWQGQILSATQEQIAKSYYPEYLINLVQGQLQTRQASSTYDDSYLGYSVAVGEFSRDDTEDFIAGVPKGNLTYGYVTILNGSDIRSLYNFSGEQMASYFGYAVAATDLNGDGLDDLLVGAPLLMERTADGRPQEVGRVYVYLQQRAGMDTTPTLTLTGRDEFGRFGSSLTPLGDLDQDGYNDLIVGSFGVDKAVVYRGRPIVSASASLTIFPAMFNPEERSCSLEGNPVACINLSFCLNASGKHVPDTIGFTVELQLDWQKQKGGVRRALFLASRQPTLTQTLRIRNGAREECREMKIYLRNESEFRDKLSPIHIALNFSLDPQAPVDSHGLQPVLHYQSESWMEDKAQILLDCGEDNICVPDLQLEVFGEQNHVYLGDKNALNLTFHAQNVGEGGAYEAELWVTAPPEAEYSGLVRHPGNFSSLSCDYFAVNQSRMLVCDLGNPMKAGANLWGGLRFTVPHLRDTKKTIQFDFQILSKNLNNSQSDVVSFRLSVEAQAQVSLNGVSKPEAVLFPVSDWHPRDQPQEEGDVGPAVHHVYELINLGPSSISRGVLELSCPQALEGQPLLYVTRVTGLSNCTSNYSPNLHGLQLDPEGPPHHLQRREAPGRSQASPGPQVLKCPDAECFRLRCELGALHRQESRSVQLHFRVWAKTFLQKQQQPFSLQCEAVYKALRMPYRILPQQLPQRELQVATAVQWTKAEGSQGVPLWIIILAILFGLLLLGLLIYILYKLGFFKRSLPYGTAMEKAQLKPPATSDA", "sequence (A0A5F9C3C4 21-798)": "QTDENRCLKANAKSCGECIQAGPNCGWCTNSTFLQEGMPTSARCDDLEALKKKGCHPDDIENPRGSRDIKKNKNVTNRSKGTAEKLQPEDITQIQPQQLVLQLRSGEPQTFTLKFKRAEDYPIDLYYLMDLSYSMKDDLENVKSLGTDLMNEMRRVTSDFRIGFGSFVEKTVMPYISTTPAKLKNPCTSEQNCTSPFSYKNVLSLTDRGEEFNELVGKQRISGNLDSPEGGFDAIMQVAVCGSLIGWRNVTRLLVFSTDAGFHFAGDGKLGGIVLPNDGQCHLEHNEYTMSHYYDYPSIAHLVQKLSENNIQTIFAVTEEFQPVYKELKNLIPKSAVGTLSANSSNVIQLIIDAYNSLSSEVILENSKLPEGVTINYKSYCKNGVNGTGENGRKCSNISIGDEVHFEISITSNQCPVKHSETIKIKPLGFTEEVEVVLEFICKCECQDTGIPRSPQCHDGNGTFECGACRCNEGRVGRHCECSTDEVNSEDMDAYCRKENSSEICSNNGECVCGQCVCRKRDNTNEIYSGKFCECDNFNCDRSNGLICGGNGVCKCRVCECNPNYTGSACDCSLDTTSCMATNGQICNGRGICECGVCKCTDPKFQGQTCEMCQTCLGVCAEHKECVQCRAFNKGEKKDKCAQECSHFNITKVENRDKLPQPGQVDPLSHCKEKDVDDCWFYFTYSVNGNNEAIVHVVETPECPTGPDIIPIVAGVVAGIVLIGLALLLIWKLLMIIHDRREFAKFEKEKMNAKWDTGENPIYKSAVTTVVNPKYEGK", "test": "species cross-reactivity of anti-α5β1 antibody", "assay_type": "binding"}, "[5]": {"test": "Phase I dose-escalation study: immunogenicity (double-antigen bridging ELISA)", "assay_type": "in vivo, human", "procedure": "Immunogenicity of M200 was determined by a double-antigen bridging ELISA assay. Serum samples for anti-M200 antibodies were obtained from patients before treatment, prior to the second dose, and at study exit, 45 days after the last dose of M200. In addition, serum for anti-M200 antibodies was drawn if the interval between doses was […]. Samples were stored and evaluated at the end of the study. Samples that tested positive for antibodies to M200 were re-assayed for neutralizing antibodies to M200. Patients with known exposure to murine or chimeric monoclonal antibodies were screened for the presence of anti-M200 antibodies prior to receiving the first dose of M200."}},
  "data": [
    {"molecule": "B1", "values": [
      {"measurement": "inhibition of α5β1 integrin binding to fibronectin", "setting": "[1]", "result": "inhibit α5β1 integrin binding to fibronectin"}
    ]},
    {"molecule": "B2", "values": [
      {"measurement": "accessibility of subcutaneous and intramuscular VX2 tumors to antibody, assessed by IHC", "setting": "VX2 tumors", "result": "accessible to M200"},
      {"measurement": "% Growth Inhibition +Serum", "setting": "CHL-1; 10% FBS", "result": 0, "unit": "%"},
      {"measurement": "% Growth Inhibition −Serum", "setting": "CHL-1; absence of serum", "result": 0, "unit": "%"},
      {"measurement": "% Growth Inhibition +Serum", "setting": "A549; 10% FBS", "result": 0, "unit": "%"},
      {"measurement": "% Growth Inhibition −Serum", "setting": "A549; absence of serum", "result": 40, "unit": "%"},
      {"measurement": "% Growth Inhibition +Serum", "setting": "A2058; 10% FBS", "result": 0, "unit": "%"},
      {"measurement": "% Growth Inhibition −Serum", "setting": "A2058; absence of serum", "result": 0, "unit": "%"},
      {"measurement": "% Growth Inhibition +Serum", "setting": "HT1080; 10% FBS", "result": 0, "unit": "%"},
      {"measurement": "% Growth Inhibition −Serum", "setting": "HT1080; absence of serum", "result": 0, "unit": "%"},
      {"measurement": "% Growth Inhibition +Serum", "setting": "A375; 10% FBS", "result": 0, "unit": "%"},
      {"measurement": "% Growth Inhibition −Serum", "setting": "A375; absence of serum", "result": 5, "unit": "%"},
      {"measurement": "% Growth Inhibition +Serum", "setting": "COLO 357; 10% FBS", "result": 0, "unit": "%"},
      {"measurement": "% Growth Inhibition −Serum", "setting": "COLO 357; absence of serum", "result": 0, "unit": "%"},
      {"measurement": "% Growth Inhibition +Serum", "setting": "H460; 10% FBS", "result": 0, "unit": "%"},
      {"measurement": "% Growth Inhibition −Serum", "setting": "H460; absence of serum", "result": 40, "unit": "%"},
      {"measurement": "% Growth Inhibition +Serum", "setting": "MIA PACA-2; 10% FBS", "result": 0, "unit": "%"},
      {"measurement": "% Growth Inhibition −Serum", "setting": "MIA PACA-2; absence of serum", "result": 20, "unit": "%"},
      {"measurement": "% Growth Inhibition +Serum", "setting": "TK-10; 10% FBS", "result": 0, "unit": "%"},
      {"measurement": "% Growth Inhibition −Serum", "setting": "TK-10; absence of serum", "result": 0, "unit": "%"},
      {"measurement": "% Growth Inhibition +Serum", "setting": "UACC-62; 10% FBS", "result": 0, "unit": "%"},
      {"measurement": "% Growth Inhibition −Serum", "setting": "UACC-62; absence of serum", "result": 0, "unit": "%"},
      {"measurement": "% Growth Inhibition +Serum", "setting": "SN12C; 10% FBS", "result": 0, "unit": "%"},
      {"measurement": "% Growth Inhibition −Serum", "setting": "SN12C; absence of serum", "result": 5, "unit": "%"},
      {"measurement": "% Growth Inhibition +Serum", "setting": "C32; 10% FBS", "result": 0, "unit": "%"},
      {"measurement": "% Growth Inhibition −Serum", "setting": "C32; absence of serum", "result": 0, "unit": "%"},
      {"measurement": "% Growth Inhibition +Serum", "setting": "EKVX; 10% FBS", "result": 0, "unit": "%"},
      {"measurement": "% Growth Inhibition −Serum", "setting": "EKVX; absence of serum", "result": 10, "unit": "%"},
      {"measurement": "% Growth Inhibition +Serum", "setting": "HCT-116; 10% FBS", "result": 0, "unit": "%"},
      {"measurement": "% Growth Inhibition −Serum", "setting": "HCT-116; absence of serum", "result": 15, "unit": "%"},
      {"measurement": "% Growth Inhibition +Serum", "setting": "CAPAN-1; 10% FBS", "result": 0, "unit": "%"},
      {"measurement": "% Growth Inhibition −Serum", "setting": "CAPAN-1; absence of serum", "result": 0, "unit": "%"},
      {"measurement": "% Growth Inhibition +Serum", "setting": "A498; 10% FBS", "result": 0, "unit": "%"},
      {"measurement": "% Growth Inhibition −Serum", "setting": "A498; absence of serum", "result": 5, "unit": "%"},
      {"measurement": "% Growth Inhibition +Serum", "setting": "C8161; 10% FBS", "result": 0, "unit": "%"},
      {"measurement": "% Growth Inhibition −Serum", "setting": "C8161; absence of serum", "result": 0, "unit": "%"},
      {"measurement": "% Growth Inhibition +Serum", "setting": "DU145; 10% FBS", "result": 0, "unit": "%"},
      {"measurement": "% Growth Inhibition −Serum", "setting": "DU145; absence of serum", "result": 0, "unit": "%"},
      {"measurement": "% Growth Inhibition +Serum", "setting": "HT144; 10% FBS", "result": 0, "unit": "%"},
      {"measurement": "% Growth Inhibition −Serum", "setting": "HT144; absence of serum", "result": 0, "unit": "%"},
      {"measurement": "% Growth Inhibition +Serum", "setting": "ES-2; 10% FBS", "result": 0, "unit": "%"},
      {"measurement": "% Growth Inhibition −Serum", "setting": "ES-2; absence of serum", "result": 0, "unit": "%"},
      {"measurement": "mean trough level", "setting": "[2]; 10 mg/kg, two weeks after the 1st dose", "result": 82, "unit": "µg/mL"},
      {"measurement": "pharmacokinetics, linearity", "setting": "[2]; slower clearance at the higher concentrations", "result": "non-linear pharmacokinetics"},
      {"measurement": "mean peak level (serum)", "setting": "[3]; 50 mg/kg after 4 weekly doses", "result": 1862, "unit": "µg/mL"},
      {"measurement": "range of peak level (serum)", "setting": "[3]; 50 mg/kg after 4 weekly doses", "result": "1000 to 2606", "unit": "µg/mL"},
      {"measurement": "toxicity", "setting": "[3]; at peak serum concentrations after 50 mg/kg, 4 weekly doses", "result": "no toxicity"},
      {"measurement": "recognition of α5β1 integrin found in rabbit", "setting": "[4]", "result": "does recognize"},
      {"measurement": "patients tested positive for anti-M200 antibodies", "setting": "[5]; 0.5 mg/kg and 1.0 mg/kg dose levels", "result": "Three"},
      {"measurement": "patients tested positive for anti-M200", "setting": "[5]; higher dose cohorts", "result": "No patients"}
    ]}
  ]
}
